Experimental data reported in EP0659766A1.

Target: T1, IL-1 receptors expressed on murine thymoma EL4 cells (murine) (UniProt P13504)
T1 sequence (looked up): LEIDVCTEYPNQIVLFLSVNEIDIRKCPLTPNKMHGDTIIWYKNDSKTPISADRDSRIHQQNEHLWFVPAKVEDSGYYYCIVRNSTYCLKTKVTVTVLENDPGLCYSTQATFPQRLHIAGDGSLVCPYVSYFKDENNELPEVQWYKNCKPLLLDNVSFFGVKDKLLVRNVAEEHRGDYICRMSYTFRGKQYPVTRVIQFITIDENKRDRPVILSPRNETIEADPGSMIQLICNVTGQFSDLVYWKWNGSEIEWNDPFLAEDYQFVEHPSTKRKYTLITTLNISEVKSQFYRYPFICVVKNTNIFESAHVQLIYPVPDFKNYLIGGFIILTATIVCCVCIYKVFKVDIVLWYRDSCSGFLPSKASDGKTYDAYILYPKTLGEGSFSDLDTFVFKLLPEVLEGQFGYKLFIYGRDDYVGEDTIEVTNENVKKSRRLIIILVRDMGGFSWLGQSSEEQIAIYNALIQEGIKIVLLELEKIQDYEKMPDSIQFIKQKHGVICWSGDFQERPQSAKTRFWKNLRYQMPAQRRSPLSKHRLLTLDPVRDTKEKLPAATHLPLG
Experiment: binding of 70 pM human ¹²⁵I-IL-1α to 1 x 10⁶ EL4 cells, no serum

¹²⁵I-IL-1α bound to EL4 cells (cpm): 4520 cpm
B1: recombinant human IL-1 alpha (IL-1α) (ligand, UniProt P01583 113-271, looked up)
chain: SAPFSFLSNVKYNFMRIIKYEFILNDALNQSIIRANDQYLTAAALHNLDEAVKFDMGAYKSSKDDAKITVILRISKTQLYVTAQDEDQPVLLKEMPEIPKTITGSETNLLFFWETHGTKNYFTSVAHPNLFIATKQDYWVCLAGGPPSITDFQILENQA
